Target: recombinant 190 kDa hHARE expressed in Flp-In 293 cells (human)

mouse IgG (polyclonal serum or antibody)
endocytosis of ^125I-HA by 190hHARE Flp-In 293 cell lines at 37° C. (% of the control value): 103

From patent publication US20050287638A1
